Substitutions are numbered along the chain they refer to.
T1: Elk-ΔA (UniProt P19419 1-253)
T1 sequence: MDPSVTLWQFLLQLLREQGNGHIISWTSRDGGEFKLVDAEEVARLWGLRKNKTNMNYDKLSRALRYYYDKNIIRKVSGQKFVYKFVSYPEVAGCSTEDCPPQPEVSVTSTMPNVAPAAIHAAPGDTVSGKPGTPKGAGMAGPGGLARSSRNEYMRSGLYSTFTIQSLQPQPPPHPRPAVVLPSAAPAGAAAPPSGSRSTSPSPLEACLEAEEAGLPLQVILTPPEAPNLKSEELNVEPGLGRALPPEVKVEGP

T2: Elk-ets (HA-tagged ETS domain) (UniProt P19419 5-86)
T2 sequence: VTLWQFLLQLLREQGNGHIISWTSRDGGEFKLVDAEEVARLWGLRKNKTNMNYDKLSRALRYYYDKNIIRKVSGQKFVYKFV

T3: ets-DM (HA-Elk-ets DNA-binding mutant) (UniProt P19419 5-86, R65A;Y66F)
T3 sequence: T2 sequence with R61A, Y62F

B1: E74 duplex (dsDNA)
DNA 1: CTAGAGCTGAATAACCGGAAGTAACTCAT
DNA 2: CTAGATGAGTTACTTCCGGTTATTCAGCT
B2: CON control duplex (dsDNA)
DNA 1: AGACCAACATGAATTACGACAGGCTCAGCCGGG
DNA 2: CCCGGCTGAGCCTGTCGTAATTCATGTTGGTCT

Experiments:
[1] = target: T1, Elk-ΔA; assay: EMSA
[2] = target: T2, Elk-ets (HA-tagged ETS domain); assay: EMSA
[3] = target: PU.1-ets (HA-tagged ETS domain) (UniProt P17947 170-253); assay: EMSA
[4] = target: T3, ets-DM (HA-Elk-ets DNA-binding mutant); assay: native gel EMSA
[5] = target: T2, Elk-ets (HA-tagged ETS domain); assay: native gel EMSA

Row | Binder | binding result [1] | binding result [2] | binding result [3] | binding result [4] | binding result [5]
1 | B1 | binds | binds | binds | no binding | 
2 | B2 |  |  |  |  | no binding

— article PMC3159454
